Each block holds one molecule with its values, some of them ahead of it.
Assays:
GST-Clp (Clp) = target: T1, GST-Clp (Clp) (Lysobacter enzymogenes, UniProt Q7WZ07); assay: microscale thermophoresis, NT-647-labelled GST-Clp; assay type: binding; conditions: 25 °C; 10 μM labelled protein (130 mM NaHCO3, 50 mM NaCl); no Hcp; protein concentration above Kd
T1 construct: labelled with NT-647-NHS for MST
T1 sequence (Q7WZ07 1-229): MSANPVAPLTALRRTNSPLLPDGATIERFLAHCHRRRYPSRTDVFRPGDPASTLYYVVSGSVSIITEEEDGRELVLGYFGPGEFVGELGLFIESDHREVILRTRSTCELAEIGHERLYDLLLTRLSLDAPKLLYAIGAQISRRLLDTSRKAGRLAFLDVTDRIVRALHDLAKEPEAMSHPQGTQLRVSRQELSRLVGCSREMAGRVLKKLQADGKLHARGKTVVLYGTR

[1] = target: GST-Clp (Lysobacter enzymogenes) (UniProt Q7WZ07); assay: MST; 10 μM NT-647-NHS labelled GST-Clp or GST in label buffer (130 mM NaHCO3, 50 mM NaCl) titrated with unlabelled Hcp-His6 in PBS; Monolith NT.115, 25°C, 80% MST power, 20% LED power
[2] = system: Clp (Lysobacter enzymogenes OH11); assay: MST; conditions: MST: 0.5 uM FAM-DNA, Clp in PBS, 25 C

Molecule: Nc1nc2c(ncn2[C@@H]2O[C@@H]3COP(=O)(O)O[C@H]4[C@@H](O)[C@H](n5cnc6c(=O)[nH]c(N)nc65)O[C@@H]4COP(=O)(O)O[C@H]3[C@H]2O)c(=O)[nH]1 [c-di-GMP]
Kd (GST-Clp (Clp)): 1500 nM

Kd [1]: 1510 nM
Molecule: Hcp-His6 (natural protein)

Molecule: PA site probe, HSAF operon promoter
Kd [2]: 390 nM
